Results on one variant are retold here after IntAct's records for PubMed 14567693.

B1: Electrogenic sodium bicarbonate cotransporter 1 (Homo sapiens), Q9Y6R1-1 (parent)
chain: MEDEAVLDRGASFLKHVCDEEEVEGHHTIYIGVHVPKSYRRRRRHKRKTGHKEKKEKERISENYSDKSDIENADESSSSILKPLISPAAERIRFILGEEDDSPAPPQLFTELDELLAVDGQEMEWKETARWIKFEEKVEQGGERWSKPHVATLSLHSLFELRTCMEKGSIMLDREASSLPQLVEMIVDHQIETGLLKPELKDKVTYTLLRKHRHQTKKSNLRSLADIGKTVSSASRMFTNPDNGSPAMTHRNLTSSSLNDISDKPEKDQLKNKFMKKLPRDAEASNVLVGEVDFLDTPFIAFVRLQQAVMLGALTEVPVPTRFLFILLGPKGKAKSYHEIGRAIATLMSDEVFHDIAYKAKDRHDLIAGIDEFLDEVIVLPPGEWDPAIRIEPPKSLPSSDKRKNMYSGGENVQMNGDTPHDGGHGGGGHGDCEELQRTGRFCGGLIKDIKRKAPFFASDFYDALNIQALSAILFIYLATVTNAITFGGLLGDATDNMQGVLESFLGTAVSGAIFCLFAGQPLTILSSTGPVLVFERLLFNFSKDNNFDYLEFRLWIGLWSAFLCLILVATDASFLVQYFTRFTEEGFSSLISFIFIYDAFKKMIKLADYYPINSNFKVGYNTLFSCTCVPPDPANISISNDTTLAPEYLPTMSSTDMYHNTTFDWAFLSKKECSKYGGNLVGNNCNFVPDITLMSFILFLGTYTSSMALKKFKTSPYFPTTARKLISDFAIILSILIFCVIDALVGVDTPKLIVPSEFKPTSPNRGWFVPPFGENPWWVCLAAAIPALLVTILIFMDQQITAVIVNRKEHKLKKGAGYHLDLFWVAILMVICSLMALPWYVAATVISIAHIDSLKMETETSAPGEQPKFLGVREQRVTGTLVFILTGLSVFMAPILKFIPMPVLYGVFLYMGVASLNGVQFMDRLKLLLMPLKHQPDFIYLRHVPLRRVHLFTFLQVLCLALLWILKSTVAAIIFPVMILALVAVRKGMDYLFSQHDLSFLDDVIPEKDKKKKEDEKKKKKKKGSLDSDNDDSDCPYSEKVPSIKIPMDIMEQQPFLSDSKPSDRERSPTFLERHTSC
partner: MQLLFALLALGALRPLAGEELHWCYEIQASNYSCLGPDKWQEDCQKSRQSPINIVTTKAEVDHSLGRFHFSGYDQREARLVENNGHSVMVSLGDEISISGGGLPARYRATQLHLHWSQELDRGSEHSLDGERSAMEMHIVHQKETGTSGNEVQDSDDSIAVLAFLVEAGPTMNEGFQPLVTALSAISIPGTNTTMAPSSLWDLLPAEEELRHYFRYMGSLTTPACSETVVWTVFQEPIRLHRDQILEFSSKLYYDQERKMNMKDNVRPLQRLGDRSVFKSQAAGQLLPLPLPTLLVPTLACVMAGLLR

Variants of B1 are the subject of this assay. The conditions noted are these: with cah4_rabit CA4, P48283.
As to G767T, the “effect of a mutation on the interaction” value is “disrupting interaction”.
